Test results reported in IntAct's records for PubMed 7538907.

B1: Tumor necrosis factor receptor superfamily member 6 (Homo sapiens), P25445 (parent)
chain: MLGIWTLLPLVLTSVARLSSKSVNAQVTDINSKGLELRKTVTTVETQNLEGLHHDGQFCHKPCPPGERKARDCTVNGDEPDCVPCQEGKEYTDKAHFSSKCRRCRLCDEGHGLEVEINCTRTQNTKCRCKPNFFCNSTVCEHCDPCTKCEHGIIKECTLTSNTKCKEEGSRSNLGWLCLLLLPIPLIVWVKRKEVQKTCRKHRKENQGSHESPTLNPETVAINLSDVDLSKYITTIAGVMTLSQVKGFVRKNGVNEAKIDEIKNDNVQDTAEQKVQLLRNWHQLHGKKEAYDTLIKDLKKANLCTLAEKIQTIILKDITSDSENSNFRNEIQSLV
B2: FAS-associated death domain protein (Homo sapiens), Q13158 (parent)
chain: MDPFLVLLHSVSSSLSSSELTELKFLCLGRVGKRKLERVQSGLDLFSMLLEQNDLEPGHTELLRELLASLRRHDLLRRVDDFEAGAAAGAAPGEEDLCAAFNVICDNVGKDWRRLARQLKVSDTKIDSIEDRYPRNLTERVRESLRIWKNTEKENATVAHLVGALRSCQMNLVADLVQEVQQARDLQNRSGAMSPMSWNSDASTSEAS

Variants of: B1
Conditions: with fadd_human FADD

Variant | effect of a mutation on the interaction
V254N | decreasing interaction

Variants of: B2
Conditions: with tnr6_human FAS

Variant | effect of a mutation on the interaction
V121N | decreasing interaction
